Experimental data from patent US20150011431A1 (Scripps Research, published 2015).
Numbering of substitutions follows the chain as printed. Names may count otherwise.

B1: IgG with VH4-34+CDR3-IL8_CDR1 Cow_CDR2 Cow and light chain V1-51 (antibody)
heavy: not shown
light: QSVLTQPPSVSAAPGQKVTISCSGSSSNIGNNYVSWYQQLPGTAPKLLIYDNNKRPSGIPDRFSGSKSGTSATLGITGLQTGDEADYYCASAEDSSSNAVFGSGTTLTVLGQPKAAPSVTLFPPSSEELQANKATLVCLISDFYPGAVTVAWKADSSPVKAGVETTTPSKQSNNKYAASSYLSLTPEQWKSHRSYSCQVTHEGSTVEKTVAPTECS
notes: IgG, human IgG1 CH1-CH2-CH3; supernatant; also called Cow / Cow / V1-51; VH4-34 CDR3-IL8 CDR1-Cow & CDR2-Cow with V1-51
B2: BLV1H12 IgG (antibody)
VH: QVQLRESGPSLVKPSQTLSLTCTASGFSLSDKAVGWVRQAPGKALEWLGSIDTGGNTGYNPGLKSRLSITKDNSKSQVSLSVSSVTTEDSATYYCTSVHQETKKYQSCPDGYRERSDCSNRPACGTSDCCRVSVFGNCLTTLPVSYSYTYNYEWHVDVWGQGLLVTVSS
light: not shown
notes: also called ULcowV
B3: IgG with VH4-34+CDR3-IL8 (antibody)
VH: QVQLQQWGAGLLKPSETLSLTCAVYGGSFSGYYWSWIRQPPGKGLEWIGEINHSGSTNYNPSLKSRVTISVDTSKNQFSLKLSSVTAADTAVYYCTSVHQETKKYQSPRSAKELRCQCIKTYSKPFHPKFIKELRVIESGPHCANTEIIVKLSDGRELCLDPKENWVQRVVEKFLKRAENSGSGSYTYNYEWHVDVWGQGLLVTVSSAS
light: not shown
notes: IgG; VH cloned before human IgG1 CH1-CH2-CH3 in HC pFuse; cell culture supernatant; also called VH4-34 BLVCDR3IL8
B4: IgG with VH4-34+CDR3-IL8_CDR2 Cow and BLV1H12 light chain (antibody)
VH: B3 VH with I48L, E50S, N52D, H53T, S54G, S56N, N58G
VL: QAVLNQPSSVSGSLGQRVSITCSGSSSNVGNGYVSWYQLIPGSAPRTLIYGDTSRASGVPDRFSGSRSGNTATLTISSLQAEDEADYFCASAEDSSSNAVFGSGTTLTVLGQPKSPPSVTLFPPSTEELNGNKATLVCLISDFYPGSVTVVWKADGSTITRNVETTRASKQSNSKYAASSYLSLTSSDWKSKGSYSCEVTHEGSTVTKTVKPSECS
notes: IgG, human IgG1 CH1-CH2-CH3; also called VH4-34 + CDR3-IL8 + Cow CDR2
B5: IgG with VH4-34+CDR3-IL8_CDR2 E50S and BLV1H12 light chain (antibody)
VH: B3 VH with E50S
VL: B4 VL
notes: IgG, human IgG1 CH1-CH2-CH3; also called VH4-34 + CDR3-IL8 + E50S

Columns and labels:
CXCR1 [1] = target: T1, CXCR1 (UniProt P25024 1-350, limits assumed); assay: flow cytometry; fluorescence on CXCR1-U2OS cells over fluorescence on parental U2OS cells
T1 construct: whole, on cells; DiscoveRx cells engineered with a luminescent reporter enzyme for beta-arrestin recruitment; also called CXCR1-U2OS; U2OS-CXCR1
T1 sequence (looked up): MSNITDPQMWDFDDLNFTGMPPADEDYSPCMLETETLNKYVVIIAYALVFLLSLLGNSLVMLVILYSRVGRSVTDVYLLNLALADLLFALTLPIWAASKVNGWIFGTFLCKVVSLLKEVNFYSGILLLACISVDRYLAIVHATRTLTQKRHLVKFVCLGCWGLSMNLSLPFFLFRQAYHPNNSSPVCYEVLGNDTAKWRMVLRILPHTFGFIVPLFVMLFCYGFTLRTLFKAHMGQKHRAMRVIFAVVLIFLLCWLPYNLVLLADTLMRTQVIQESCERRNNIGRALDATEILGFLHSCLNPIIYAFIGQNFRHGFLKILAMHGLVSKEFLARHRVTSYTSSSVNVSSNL
Description: (§1) In an exemplary method, BLV1H12 IgG comprising a CDR3 with an IL-8 insert (e.g., the IL-8 sequence replaced a portion of the CDR3) was evaluated for binding to CXCR1 expressing cells by flow cytometry. Briefly, a cell line expressing functionally validated CXCR1 derived from U2OS cells was obtained from DiscoveRx and cultured per manufacturer's instructions (Cat#93-0226C3, DiscoveRx Corporation, Freemont, Calif.). The parental cell line U2OS was obtained from ATCC and cultured under the same conditions as the CXCR1 cells. Cell culture supernatants were then tested for binding to cells by flow cytometry. The adherent U2OS or CXCR1-U2OS cells were dissociated with Accutase (Innovative Cell Technologies, Inc., San Diego, Calif.), neutralized with an equal volume of media containing 10% serum, centrifuged at 1000 g, and resuspended in PBS with 2% BSA. Next, cells were dispensed into microtiter plates to achieve between 30,000 to 300,000 cells per well, centrifuged again, and resuspended in cell culture supernatant containing expressed IgG, or a dilution of IgG-containing cell culture supernatant. A fluorescent-conjugated anti-Human Fc antibody was used to detect binding of the expressed antibody to cells.
Alternatively, using the BLV1H12 light chain variable region as a guide, the human germline sequences identified with closest homology were V1-47 and V1-51.

CXCR1 [2] = target: T1, CXCR1; assay: flow cytometry with 2 ug/ml heparin sulfate, IgG normalized to 10 nM; CXCR1-U2OS against parental U2OS cells
Description: Cell culture supernatants were then tested for binding to cells by flow cytometry. The adherent U2OS or CXCR1-U2OS cells were dissociated with Accutase (Innovative Cell Technologies, Inc., San Diego, Calif.), neutralized with an equal volume of media containing 10% serum, centrifuged at 1000 g, and resuspended in PBS with 2% BSA. Next, cells were dispensed into microtiter plates to achieve between 30,000 to 300,000 cells per well, centrifuged again, and resuspended in cell culture supernatant containing expressed IgG, or a dilution of IgG-containing cell culture supernatant. A fluorescent-conjugated anti-Human Fc antibody was used to detect binding of the expressed antibody to cells.
In an exemplary method, variants of V1-51 were made by overlap PCR and subcloned into pFuse vector for expression as described in Example 4. […] These V1-51 variants were paired with heavy chains encoding VH4-34+CDR3-IL8 (SEQ ID NO: 430), VH4-34+CDR3-IL8_CDR1 Cow (SEQ ID NO: 432), VH4-34+CDR3-IL8_CDR2 Cow (SEQ ID NO: 433), or VH4-34+CDR3-IL8_CDR1 Cow CDR2 Cow, (SEQ ID NO: 436). Transfections and ELISA were carried out as described above, and flow cytometry was used to evaluate CXCR1 binding specificity as previously described, with the modification that cells were resuspended in 2% BSA in PBS plus 2 ug/ml Heparin sulfate, and IgGs were normalized to 10 nM during incubation on cells.

CXCR1 [3] = target: T1, CXCR1; assay: flow cytometry, IgG-containing supernatant on CXCR1-U2OS cells, fluorescent anti-human Fc
Description: as §1
(§2) Additionally, the human germline CDR3-IL8 IgGs described in Example 5 were evaluated for binding to CXCR1 expressing cells by flow cytometry as described above. IgG binding to CXCR1-U2OS cells is indicated by higher fluorescence values, but non-specific binding to U2OS parental cells is also detectable.

CXCR1 [4] = target: T1, CXCR1; assay: flow cytometry; fluorescence on CXCR1-U2OS cells over fluorescence on parental U2OS cells; remark: listed apart in the source
Description: as §1, §2

CXCR1 [5] = target: T1, CXCR1; assay: as above; remark: listed apart in the source
Description: as §1
In an exemplary method, certain residues in VH4-34 CDR1 and/or CDR2 were substituted with corresponding CDR1 and/or CDR2 residues from BLV1H12. Briefly, the pFuse vector encoding heavy chain VH4-34 CDR3-IL8 was modified by overlap PCR to replace all of CDR1 with sequence from BLV1H12 (VH4-34+CDR3-IL8_CDR1 Cow, SEQ ID NO: 432) or all of CDR2 with sequence from BLV1 H12 (VH4-34+CDR3-IL8_CDR2 Cow, SEQ ID NO: 433).

| Binder | CXCR1/Parental Ratio (CXCR1 [1]) | CXCR1 specificity (CXCR1 [2]) | median fluorescence on CXCR1-U2OS (CXCR1 [3]) | Ratio of CXCR1/Parental (CXCR1 [4]) | FACS CXCR1/Parental Ratio (CXCR1 [5]) |
| --- | --- | --- | --- | --- | --- |
| B1 | 3.1 | 11.1 |  |  |  |
| B2 |  |  | 9 AFU | 1.9 | 1.9 |
| B3 |  |  | 648 AFU | 9.3 | 9.3 |
| B4 |  |  |  |  | 8 |
| B5 |  |  |  |  | 4 |
